Tested on: T1, N[C@H](CO)C(=O)O
T1 construct: human recombinant DAAO enzyme
Assay: Amplex Red H2O2 detection; Michaelis constant (in-house data)
Type: biochemical, Homo sapiens
Conditions: FAD

Sequence of D-amino acid oxidase (DAAO) (Homo sapiens) (chain, as listed by the source): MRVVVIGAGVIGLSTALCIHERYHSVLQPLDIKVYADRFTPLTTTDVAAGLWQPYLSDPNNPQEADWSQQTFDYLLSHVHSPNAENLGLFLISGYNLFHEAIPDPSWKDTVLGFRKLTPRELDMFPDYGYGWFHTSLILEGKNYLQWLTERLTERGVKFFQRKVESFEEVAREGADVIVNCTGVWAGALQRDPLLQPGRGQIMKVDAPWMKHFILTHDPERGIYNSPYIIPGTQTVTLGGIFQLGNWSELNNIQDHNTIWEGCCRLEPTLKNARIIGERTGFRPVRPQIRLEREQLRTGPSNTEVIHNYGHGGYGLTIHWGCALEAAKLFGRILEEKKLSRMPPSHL

In the case of “D-amino acid oxidase (DAAO) (Homo sapiens)”, the Km is reported as 1.2 mM.

Reference: paper PMC10471729, “Luvadaxistat: A Novel Potent and Selective D-Amino Acid Oxidase Inhibitor Improves Cognitive and Social Deficits in Rodent Models for Schizophrenia” (Neurochemical Research, 2023)
